From article PMC3501490 (2012)

Target: T1, G6B-b dual phosphopeptide pY211/pY237 (Homo sapiens, UniProt O95866, pY211+pY237)
T1 chain: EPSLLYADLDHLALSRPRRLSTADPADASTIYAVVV
Assay: SPR

Kd: 35.3 nM
B1: SHP-1 tandem SH2 (protein)
chain: WFHRDLSGLDAETLLKGRGVHGSFLARPSRKNQGDFSLSVRVGDQVTHIRIQNSGDFYDLYGGEKFATLTELVEYYTQQQGVLQDRDGTIIHLKYPLNCSDPTSERWYHGHMSGGQAETLLQAKGEPWTFLVRESLSQPGDFVLSVLSDQPKAGPGSPLRVTHIKVMCEGGRYTVGGLETFDSLTDLVEHFKKTGIEEASGAFVYLRQPY
